Experimental data reported in paper PMC8489356.
Where “and” joins values, the source holds several entries; their conditions need not be identical. Equal entries are not always repeated.

Legend:
[1] = biological target: His-tagged recombinant human sortilin (human) (UniProt Q99523); assay: ELISA
[2] = biological target: His-tagged recombinant human prosaposin (PSAP) (human) (UniProt P07602); assay: ELISA
UniProt P07602, sequence (P07602 17-524): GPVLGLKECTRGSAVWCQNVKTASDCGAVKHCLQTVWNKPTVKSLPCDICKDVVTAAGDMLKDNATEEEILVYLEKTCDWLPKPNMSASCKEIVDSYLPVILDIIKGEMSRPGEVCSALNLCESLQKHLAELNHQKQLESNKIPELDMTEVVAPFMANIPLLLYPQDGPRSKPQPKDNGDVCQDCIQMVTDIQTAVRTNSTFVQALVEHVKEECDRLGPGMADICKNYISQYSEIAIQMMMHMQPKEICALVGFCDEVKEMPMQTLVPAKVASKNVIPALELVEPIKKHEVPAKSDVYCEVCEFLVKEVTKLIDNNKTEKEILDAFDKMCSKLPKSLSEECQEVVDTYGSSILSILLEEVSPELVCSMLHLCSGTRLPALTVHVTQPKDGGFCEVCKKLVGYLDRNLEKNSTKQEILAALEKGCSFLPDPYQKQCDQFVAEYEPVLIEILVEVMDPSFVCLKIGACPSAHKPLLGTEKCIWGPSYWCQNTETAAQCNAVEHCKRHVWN

UniProt Q99523, sequence (Q99523 78-755): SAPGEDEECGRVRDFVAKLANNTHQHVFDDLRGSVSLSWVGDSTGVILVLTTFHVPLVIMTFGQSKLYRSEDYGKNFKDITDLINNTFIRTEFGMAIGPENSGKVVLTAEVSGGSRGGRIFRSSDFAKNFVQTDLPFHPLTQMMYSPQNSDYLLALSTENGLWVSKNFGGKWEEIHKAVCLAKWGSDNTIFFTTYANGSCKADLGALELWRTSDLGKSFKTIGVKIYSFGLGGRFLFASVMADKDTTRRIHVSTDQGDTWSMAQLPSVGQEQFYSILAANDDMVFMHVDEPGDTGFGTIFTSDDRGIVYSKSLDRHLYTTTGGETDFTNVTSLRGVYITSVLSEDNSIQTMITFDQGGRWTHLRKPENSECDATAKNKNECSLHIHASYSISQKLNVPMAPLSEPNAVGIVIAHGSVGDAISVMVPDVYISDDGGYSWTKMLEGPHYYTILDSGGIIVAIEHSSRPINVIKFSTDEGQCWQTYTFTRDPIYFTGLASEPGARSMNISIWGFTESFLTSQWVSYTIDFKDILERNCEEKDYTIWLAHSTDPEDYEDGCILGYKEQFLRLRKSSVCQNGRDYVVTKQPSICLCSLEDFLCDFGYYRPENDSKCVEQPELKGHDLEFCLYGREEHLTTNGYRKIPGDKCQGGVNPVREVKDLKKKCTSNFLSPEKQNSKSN

Row | EC50 [1] | EC50 [2] | Substance
1 | 2.2 nM and 0.47 nM | 1.74 nM and 5.1 nM | protein transport vehicle:PGRN (PTV:PGRN), expressed in Expi293 cells (Fc fusion)
2 | 1.8 nM and 0.31 nM | 1.14 nM and 3.9 nM | Fc:PGRN (huPGRN fused to a normal Fc) (Fc fusion)
